For the assay, the target named is 15-residue tubulin peptide.

Substance “F105A TAT mutant (from UniProt Q5SQI0 1-421) (enzyme)” came in with an acetylation activity kept with a 15-residue tubulin peptide (data not shown) of 89 % activity.

For the origin of these results see PMC4726456.
